In patent US20260191954A1, “COMPOSITIONS AND METHODS FOR NEOADJUVANT TREATMENT IN CANCER” (INNATE PHARMA, priority 2022, published 2026):
Where “and” joins values, the source holds several entries; their conditions need not be identical. Equal values may be shown once.

Legend:
Assay type in all cases: in vivo
[1] = target: T1, free membrane CD39 (mCD39) on monocytes (Homo sapiens, UniProt P49961); experiment: Indirect response PD model: IPH5201 concentration vs free mCD39 on monocytes, phase 1 patients
T1 construct: endogenous in cells; host or cells: monocytes and B cells in patients' blood
T1 sequence (P49961 1-510): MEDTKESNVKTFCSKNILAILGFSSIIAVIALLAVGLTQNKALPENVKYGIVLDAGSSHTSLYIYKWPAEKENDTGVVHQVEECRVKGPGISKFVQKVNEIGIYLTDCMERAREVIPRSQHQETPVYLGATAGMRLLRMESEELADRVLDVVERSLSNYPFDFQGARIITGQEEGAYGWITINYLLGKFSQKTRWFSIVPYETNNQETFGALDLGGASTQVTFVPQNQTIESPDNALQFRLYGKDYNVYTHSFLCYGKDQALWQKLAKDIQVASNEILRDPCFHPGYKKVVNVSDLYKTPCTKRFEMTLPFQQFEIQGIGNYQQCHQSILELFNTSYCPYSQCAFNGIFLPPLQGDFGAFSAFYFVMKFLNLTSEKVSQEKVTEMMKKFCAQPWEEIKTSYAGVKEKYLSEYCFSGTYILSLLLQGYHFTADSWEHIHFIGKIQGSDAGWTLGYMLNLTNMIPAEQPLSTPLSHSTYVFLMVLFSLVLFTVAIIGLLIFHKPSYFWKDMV
Excerpt: PK/PD modelling and simulation were used to guide selection of doses. IPH5201 PK data from 45 patients and PD data of free membrane CD39 (mCD39) occupancy on monocytes from 43 patients were available.
An indirect response PD model (inhibition on Kin) was then built to describe the relationship between IPH5201 concentrations and free mCD39 on monocytes (FIG. 10). The model accurately predicted CD39free+ of monocytes (%). […] The final indirect response model was then used for parametric simulation.

[2] = Phase 1 study of IPH5201 +/- durvalumab in advanced solid tumours: safety
Method: A first-in-human, multicentre, non-randomised, open-label, phase 1 study was conducted in order to assess the safety, efficacy, pharmacokinetics (PK) and pharmacodynamics (PD) of IPH5201±durvalumab (Imfinzi™) in patients with advanced solid tumours. The study consisted of two consecutive dose-escalation parts: • Part 1: Ascending doses of IPH5201 (100, 300, 1000 and 3000 mg) every 3 weeks (Q3W). • Part 2: Ascending doses of IPH5201 (300, 1000 and 3000 mg) and 1500 mg durvalumab Q3W.
PD cohorts enrolled patients with advanced squamous cell lung carcinoma or advanced pancreatic ductal adenocarcinoma in the top two dose levels of Parts 1 and 2. Primary endpoints were safety and tolerability. Key secondary endpoints included preliminary antitumour activity measured by objective response and disease control per RECIST v1.1, PK and immunogenicity. Exploratory endpoints included efficacy measured by duration of response and progression-free survival (PFS) per RECIST v1.1, overall survival and assessment of biomarkers.
Key inclusion criteria were: • Adults aged ≥18 years. • Histologically or cytologically confirmed advanced solid tumours. • At least one measurable lesion per RECIST v1.1. • Refractoriness to standard therapy or disease for which no standard therapy exists. • Eastern Cooperative Oncology Group Performance Status of 0 or 1. • Archival or fresh tumour sample. • Key exclusion criteria were: • Previous treatment with any agents targeting CD73, CD39, or adenosine receptors. • Treatment with any conventional or investigational anticancer therapy within 21 days of the first planned dose. • Active or prior autoimmune or inflammatory disorders within the past 5 years. • Cardiac and vascular criteria including presence of acute coronary syndrome or thromboembolic events within 6 months prior to enrolment, congestive heart failure, serious cardiac arrhythmia requiring medication, or uncontrolled hypertension. • Untreated metastases to the central nervous system.
Overall, 57 patients received treatment (IPH5201, n=38; IPH5201+durvalumab, n=19). […] Treatment-emergent adverse events (TEAEs) occurred in 96.5% of patients; 40.4% had grade ≥3 TEAEs. […] Treatment-related adverse events (TRAEs) occurred in 66.7% of patients (37/57 (64.9%) related to IPH5201; 11/19 (57.9%) related to durvalumab). […] The most common TRAEs were infusion-related reactions (21.1%), fatigue (17.5%), nausea, arthralgia, tumour pain and pruritus (8.8% each). […] Maximum tolerated dose (MTD) was not reached.

CD39 enzyme activity = target: T2, CD39 enzyme activity (Homo sapiens, UniProt P49961); experiment: Tumoral CD39 enzyme activity in patient biopsies (Wachstein-Meisel assay); details: for Significant overall decrease in CD39 enzymatic activity?: Day 15 vs screening biopsy
T2 construct: Tumour samples were obtained from patients with pancreatic cancer and assessed for CD39 enzyme activity; from tissue; host or cells: patients' tumour biopsies (tumour, stroma, vasculature), screening vs Day 15
T2 sequence (P49961 1-510): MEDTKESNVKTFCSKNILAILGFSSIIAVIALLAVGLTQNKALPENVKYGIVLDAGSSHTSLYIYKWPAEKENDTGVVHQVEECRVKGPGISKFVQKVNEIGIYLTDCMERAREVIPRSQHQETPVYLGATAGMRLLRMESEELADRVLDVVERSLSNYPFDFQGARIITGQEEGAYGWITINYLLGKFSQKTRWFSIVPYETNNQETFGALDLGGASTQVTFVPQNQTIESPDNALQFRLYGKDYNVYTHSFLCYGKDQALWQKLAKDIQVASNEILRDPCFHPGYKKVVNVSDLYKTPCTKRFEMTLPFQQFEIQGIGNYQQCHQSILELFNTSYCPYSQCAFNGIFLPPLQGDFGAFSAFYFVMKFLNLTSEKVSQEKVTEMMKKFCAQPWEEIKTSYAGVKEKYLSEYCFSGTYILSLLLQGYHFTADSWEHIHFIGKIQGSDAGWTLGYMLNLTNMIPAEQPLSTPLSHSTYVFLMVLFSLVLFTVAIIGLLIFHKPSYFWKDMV

B1: IPH5201: humanized anti-CD39 antibody having the respective heavy and light chain amino acid sequences of SEQ ID NOS: 10 and 11 (antibody)
heavy: QVQLVQSGAEVKKPGASVKVSCKASGYTFTDYNMHWVRQAPGQRLEWIGYIVPLNGGSTFNQKFKGRATITVDTSARTAYMELSSLRSEDTAVYYCARGGTRFAYWGQGTLVTVSSASTKGPSVFPLAPSSKSTSGGTAALGCLVKDYFPEPVTVSWNSGALTSGVHTFPAVLQSSGLYSLSSVVTVPSSSLGTQTYICNVNHKPSNTKVDKRVEPKSCDKTHTCPPCPAPEAEGAPSVFLFPPKPKDTLMISRTPEVTCVVVDVSHEDPEVKFNWYVDGVEVHNAKTKPREEQYNSTYRVVSVLTVLHQDWLNGKEYKCKVSNKALPSSIEKTISKAKGQPREPQVYTLPPSREEMTKNQVSLTCLVKGFYPSDIAVEWESNGQPENNYKTTPPVLDSDGSFFLYSKLTVDKSRWQQGNVFSCSVMHEALHNHYTQKSLSLSPGK
light: DIVMTQSPDSLAVSLGERATINCRASESVDNFGVSFMYWFQQKPGQPPKLLIYGASNQGSGVPDRFSGSGSGTDFTLTISSLQAEDVAVYYCQQTKEVPYTFGGGTKVEIKRTVAAPSVFIFPPSDEQLKSGTASVVCLLNNFYPREAKVQWKVDNALQSGNSQESVTEQDSKDSTYSLSSTLTLSKADYEKHKVYACEVTHQGLSSPVTKSFNRGEC
For B1, which Production rate constant ([1]; indirect response PD model (inhibition on Kin), model parameter) is on record?
The Production rate constant was 20.5 h⁻¹.

What about the “Maximum inhibition (IMAX) of CD39free+” value ([1]; indirect response PD model, monocytes) of the same molecule?
The value was 0.926 and 0.92.

What about the “deaths due to treatment” value ([2]; all 57 treated patients) of the same molecule?
The value was “no deaths due to treatment”.

And the “Maximum tolerated dose (MTD)” value ([2]; doses up to 3000 mg Q3W)?
Its value is “not reached”.

And the “DLTs during dose escalation” value ([2]; in vivo)?
Its value is “No DLTs were observed”.

And the “TEAE: anaemia” value ([2]; in vivo)?
Its value is 19.3%.

And the “TEAE: decreased appetite” value ([2]; in vivo)?
Its value is 26.3%.

And the “TEAE: fatigue” value ([2]; in vivo)?
Its value is 28.1%.

And the “TEAE: infusion-related reactions” value ([2]; in vivo)?
Its value is 21.1%.

What about the “TEAE: tumour pain” value ([2]; in vivo) of the same molecule?
The value was 19.3%.

And the “TRAE: arthralgia” value ([2]; in vivo)?
Its value is 8.8%.

And the “TRAE: fatigue” value ([2]; in vivo)?
Its value is 17.5%.

And the “TRAE: infusion-related reactions” value ([2]; in vivo)?
The value was 21.1%.

And the “TRAE: nausea” value ([2]; in vivo)?
Its value is 8.8%.

What about the “TRAE: pruritus” value ([2]; in vivo) of the same molecule?
Its value is 8.8%.

What about the “TRAE: tumour pain” value ([2]; in vivo) of the same molecule?
The value was 8.8%.

And the “correlation of dose with incidence of TEAEs of at least grade 3” value ([2]; in vivo)?
Its value is “No significant correlation”.

What about the “grade 4 TRAEs” value ([2]; in vivo) of the same molecule?
Its value is “no grade 4 TRAEs”.

What about the “patients with TRAEs related to IPH5201” value ([2]; in vivo) of the same molecule?
The value was 64.9%.

And the “patients with TRAEs related to IPH5201, count” value ([2]; in vivo)?
The value was 37/57.

And the “patients with grade 3 TRAEs” value ([2]; in vivo)?
Its value is 10.5%.

And the “patients with grade ≥3 TEAEs” value ([2]; in vivo)?
Its value is 40.4%.

And the “patients with treatment-emergent adverse events (TEAEs)” value ([2]; in vivo)?
The value was 96.5%.

And the “patients with treatment-related adverse events (TRAEs)” value ([2]; in vivo)?
Its value is 66.7%.

What about the “tumoral CD39 enzymatic activity” value (CD39 enzyme activity; 3000 mg dose of IPH5201) of the same molecule?
The value was “showed a decrease in enzymatic activity”.

What about the “Significant overall decrease in CD39 enzymatic activity?” value (shortened to “Significant overall decrease”) (CD39 enzyme activity; Patient 1, Cohort 1000 mg, NSCLC (squamous)) of the same molecule?
The value was “No”.

And the “Significant overall decrease” value (CD39 enzyme activity; Patient 3, Cohort 1000 mg, Pancreatic)?
Its value is “Yes”.

And the “Significant overall decrease” value (CD39 enzyme activity; Patient 4, Cohort 3000 mg, Pancreatic)?
The value was “Yes”.

What about the “Significant overall decrease” value (CD39 enzyme activity; Patient 5, Cohort 3000 mg, Pancreatic) of the same molecule?
The value was “Yes”.

And the “Significant overall decrease” value (CD39 enzyme activity; Patient 6, Cohort 3000 mg, Pancreatic)?
The value was “Yes”.

And the “Significant overall decrease” value (CD39 enzyme activity; Patient 7, Cohort 3000 mg, NSCLC (squamous))?
Its value is “Yes”.

What about the “patients in whom tumoral CD39 enzymatic activity decreased” value (CD39 enzyme activity; patients with available samples) of the same molecule?
Its value is 5/8.
